Measurements from US20180215829A1 (published 2018).

Biological target: recombinant human IL-17RA Fc fusion protein (R&D Systems 177-IR-100) (UniProt Q96F46 33-320)
Assay: BIAcore

recombinant human IL-17RA Fc fusion protein (R&D Systems 177-IR-100), sequence (Q96F46 33-320): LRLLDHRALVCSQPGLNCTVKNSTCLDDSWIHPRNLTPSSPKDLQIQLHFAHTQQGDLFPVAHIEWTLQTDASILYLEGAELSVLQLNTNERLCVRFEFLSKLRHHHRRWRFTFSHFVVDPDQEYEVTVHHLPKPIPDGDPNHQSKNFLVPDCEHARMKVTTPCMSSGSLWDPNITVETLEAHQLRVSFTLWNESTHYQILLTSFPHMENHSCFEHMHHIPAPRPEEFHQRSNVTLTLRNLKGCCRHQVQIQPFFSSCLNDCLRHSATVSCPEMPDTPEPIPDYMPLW

B1: VH clone 1.2 (VHH)
VHH: EVQLVESGGGLVQPGRSLRLSCAASGFTFDDYAMHWVRQAPGKGLEWVSGISWNSGRMDYADSVKGRFTISRDNAKNSLYLQMNSLRAEDTALYYCAKEKGLGYCRGGSCSYFDYRGQGTLVTVSS
**Q.** B1 was tested. Which koff did it give?
**A.** 5.79e-05 s⁻¹

B2: VH clone 2.1 (VHH)
VHH: QVQLVQSGAEVKKPGASVKVSCKASGYPFTSYDINWVRQATGQSLEWMGWMNPNSGDTVYAQKFQGRVTMTRNTSISTAYMELSSLRSEDTAVYFCARGRRDDWKNNYWGQGTLVTVSS
**Q.** B2 was tested. Which koff did it give?
**A.** 0.00384 s⁻¹

B3: VH clone 1.1 (VHH)
VHH: QVQLVESGGGLVQPGRSLRLSCAASGFTFDDYAMHWVRQAPGKGLEWVSGISWNSGRMDYADSVKGRFTISRDNAKKSLYLQMNSLRAEDTAMYYCAKEKGLGFCRGGSCSYFDYRGQGTLVTVSS
**Q.** B3 was tested. Which koff did it give?
**A.** 5.83e-05 s⁻¹
